Appearance and Elution rate data for two substances are collected here from patent US7854918B2, “Composition for medical use having improved water-solubility of peptide and metal-labeling efficiency and preparation for medical use comprising metal-labeled peptide” (Nihon Medi-Physics Co., Ltd., priority 2004, dated 2010).

Series [1] is described as follows: External observation of peptide sample solutions (presence or absence of white turbidity). Type of series: physicochemical. The method, then:
(§1) Peptide 1, Peptide 2, and Peptide 3 (100 μg each) were separately added to 410 mM arginine solutions (pH 11) to adjust each total amount to 700 μL. Molarities in these solutions are 94 μM (Peptide 1), 99 μM (Peptide 2), and 161 μM (Peptide 3). […] Then, 200 μL each of the sample solutions was filtered with a filter Millex (registered trademark)-GV (trade name, manufactured by Nihon Millipore) with a pore size of 0.22 μm. The sample solutions before filtration and the sample solutions after filtration were respectively analyzed by reverse-phase HPLC. Peak area percentages were determined from the peak area values of the peptides before and after filtration and used as elution rates. HPLC analytical conditions are shown below.
(§2) For a comparative example, Peptide 1, Peptide 2, and Peptide 3 were separately dissolved in each of water and dimethylsulfoxide (DMSO) to prepare samples having a peptide concentration of 94 μM, 99 μM, or 161 μM, which were studied in the same way as above.
(§3) Arginine, lysine, and histidine were separately dissolved in water to prepare 410 mM arginine solution, 489 mM lysine solution, and 90 mM histidine solution. An aqueous solution of sodium hydroxide and hydrochloric acid were added to these solutions to adjust the pH of the aqueous solutions of lysine and histidine to 8, 9, 10, and 11, and the pH of the aqueous solution of arginine to 8, 8.5, 9, 9.5, 10, and 11. Subsequently, Peptide 1 was added to these aqueous solutions to prepare 94 μM Peptide 1 solutions. […] Then, 200 μL each of the sample solutions was filtered with a filter Millex (registered trademark)-GV (trade name, manufactured by Nihon Millipore) with a pore size of 0.22 μm. The sample solutions before filtration and the sample solutions after filtration were respectively analyzed by reverse-phase HPLC. Peak area percentages were determined from the peak area values of Peptide 1 before and after filtration and used as elution rates. HPLC analytical conditions were the same as the conditions described in Example 1.
(§4) Imidazole was dissolved in water to prepare 1 mM imidazole solution. pH was adjusted to 8, 8.5, and 9 by adding an appropriate amount of hydrochloric acid to this solution. Subsequently, Peptide 1 was added to these imidazole solutions to prepare 94 μM Peptide 1 solutions. […] Then, 200 μL each of the sample solutions was filtered with a filter Millex (registered trademark)-GV (trade name, manufactured by Nihon Millipore) with a pore size of 0.22 μm. The sample solutions before filtration and the sample solutions after filtration were respectively analyzed by reverse-phase HPLC. Peak area percentages were determined from the peak area values of Peptide 1 before and after filtration and used as elution rates. HPLC analytical conditions were the same as the conditions described in Example 1.
(§5) Disodium hydrogen phosphate, sodium dihydrogen citrate, sodium ascorbate, and imidazole were separately dissolved in water to prepare their respective aqueous solutions with pH 9 at concentrations described in Table 4. pH adjustment was performed with hydrochloric acid and an aqueous solution of sodium hydroxide. The above-described aqueous solutions were separately added to the weighed Peptide 1 to prepare 94 μM Peptide 1 solutions. […] These Peptide 1 solutions were compared with the Peptide 1 sample solutions using the respective aqueous solutions of disodium hydrogen phosphate, sodium dihydrogen citrate, and sodium ascorbate used as comparative controls. Subsequently, 200 μL each of the sample solutions was filtered with a filter Millex (registered trademark)-GV (trade name, manufactured by Nihon Millipore) with a pore size of 0.22 μm. The sample solutions before filtration and the sample solutions after filtration were respectively analyzed by reverse-phase HPLC. […]

Series [2] can be described thus: Elution rate: reverse-phase HPLC peak area of the peptide after vs before 0.22 μm filtration. In kind it is physicochemical. The following applies: peptide 94/99/161 μM. The method, then: as §1, §2
Column: Cosmosil 5C18-AR-300 (Manufactured by Nacalai Tesque, 4.6×150 mm)
Detection: ultraviolet and visible spectrophotometer (detection wavelength: 220 nm)
HPLC system: Alliance (manufactured by Waters, Japan)
Eluant A: 0.1% trifluoroacetic acid (hereinafter, TFA)/purified water
Eluant B: 0.1% TFA/acetonitrile
Concentration gradient: 0 min (Eluant B 20%)→25 min (Eluant B 70%)
as §3, §4
as §5, with “controls.” for “controls. Subsequently, 200 μL each of the sample solutions was filtered with a filter Millex (registered trademark)-GV (trade name, manufactured by Nihon Millipore) with a pore size of 0.22 μm. The sample solutions before filtration and the sample solutions after filtration were respectively analyzed by reverse-phase HPLC.”

Where [3] appears, read: 410 mM arginine solution, pH 11, peptide 94/99/161 μM.
[4] abbreviates: solvent DMSO, peptide 94/99/161 μM.
[5] abbreviates: solvent water, peptide 94 μM (Peptide 1), 99 μM (Peptide 2), 161 μM (Peptide 3).
[6] abbreviates: 410 mM arginine solution, pH 11.

Square brackets hold non-standard residues; d marks the D form. Ends that are not written are not given here. * marks the point of attachment. Nle = CCCC[C@H](N)C(=O)O; For = O=C*

On to “formyl-Met-Leu-Phe-Lys-ε(-Gly-Asp-Ac—S-Bzl) (For-MLFKGD; not fully specified (C-terminus); printed as formyl-Met-Leu-Phe-Lys-ε(-Gly-Asp-Ac—S-Bzl); also: Gly-Asp attached through Lys epsilon-amino (branch)) [Peptide 3]”, for which the values for the Appearance result in series [1] (setting [3]), in series [1] (setting [4]) and in series [1] (setting [5]) were “Colorless,”, “Colorless,” and “Whitish”, respectively. Also, the Elution rate stood at 101.3% in series [2] (setting [6]) and 108.5% in series [2] (solvent DMSO).

Regarding “formyl-Nle-Leu-Phe-Nle-Tyr-Lys(NH2)-ε(-Ser-D-Arg-DTPA*) (For-[Nle]LF[Nle]YKS[dR]; not fully specified (C-terminus); also: Lys(NH2): Lys α-carboxamide, Ser-D-Arg branch on Lys ε-amine, DTPA* at end of Ser-D-Arg branch) [Peptide 2]”, the Appearance entry in series [1] (setting [3]) is recorded as “Colorless,”; in series [1] (setting [4]), “Colorless,”; in series [1] (setting [5]), “Whitish”. The values for the Elution rate in series [2] (setting [6]) and in series [2] (solvent DMSO) were 102.8% and 100.9%, respectively.
